Assay results from patent US20050282743A1 (ARBOR VITA, published 2005).

Tests used:
HPV E6 33 (modified) = biological target: T1, HPV E6 33 (modified) (HPV strain 33); test: G assay titration, PDZ 0.5 ug/ml
T1 construct: also called AA72.1

[1] = biological target: HPV E6 #35 (cysteine-free) (HPV strain 35); test: G assay titration, PDZ 5 ug/ml
HPV E6 58 (modified) [2] = biological target: T2, HPV E6 58 (modified) (HPV strain 58); test: G assay titration, PDZ 0.5 ug/ml
T2 construct: also called AA75.1

[3] = biological target: HPV E6 #66 (cysteine-free) (HPV strain 66); test: G assay titration, PDZ 1 ug/ml
[4] = biological target: HPV E6 #35 (cysteine-free) (HPV strain 35); test: G assay titration, PDZ 0.5 ug/ml
[5] = biological target: HPV E6 #66 (cysteine-free) (HPV strain 66); test: G assay titration, PDZ 5 ug/ml
[6] = biological target: HPV E6 #66 (cysteine-free) (HPV strain 66); test: G assay titration, PDZ 0.5 ug/ml
[7] = biological target: HPV E6 #57 (cysteine-free) (HPV strain 57); test: G' assay; Classification 0 = A450 nm 0, not found to interact
HPV E6 77 (modified) = biological target: T3, HPV E6 77 (modified) (HPV strain 77); test: as above
T3 construct: also called AA78.1

HPV E6 58 (modified) [8] = biological target: T2, HPV E6 58 (modified); test: G assay titration, PDZ 3 ug/ml
HPV E6 58 (modified) [9] = biological target: T2, HPV E6 58 (modified); test: G assay titration, PDZ 5 ug/ml

B1: GST-Atrophin-1 Interacting Protein PDZ domain 1 (other, not shown: a dimerising Fc or GST)
chain: REKPLFTRDASQLKGTFLSTTLKKSNMGFGFTIIGGDEPDEFLQVKSVIPDGPAAQDGKMETGDVIVYINEVCVLGHTHADVVKLFQSVPIGQSVNLVLCRGYP
notes: also called Atrophin-1 Inter; Prot; Atr-P (1/6)
Kd (HPV E6 33 (modified)): 5 µM

B2: GST-DLG1 PDZ domain 2 (other, not shown: a dimerising Fc or GST)
chain: IQLIKGPKGLGFSIAGGVGNQHIPGDNSIYVTKIIEGGAAHKDGKLQIGDKLLAVNNVCLEEVTHEEAVTALKNTSDFVYLKVAKPTSMYMNDGN
Kd (HPV E6 33 (modified)): 5 µM

B3: GST-ERBIN PDZ domain 1 (other, not shown: a dimerising Fc or GST)
chain: QGHELAKQEIRVRVEKDPELGFSISGGVGGRGNPFRPDDDGIFVTRVQPEGPASKLLQPGDKIIQANGYSFINIEHGQAVSLLKTFQNTVELIIVREVSS
Kd [1]: 0.4 µM

B4: GST-Outer Membrane PDZ domain 1 (other, not shown: a dimerising Fc or GST)
chain: LLTEEEINLTRGPSGLGFNIVGGTDQQYVSNDSGIYVSRIKENGAAALDGRLQEGDKILSVNGQDLKNLLHQDAVDLFRNAGYAVSLRVQHRLQVQNGIHS
Kd (HPV E6 58 (modified) [2]): 5 µM

B5: GST-TIP1 PDZ domain 1 (Table 9 insert) (other, not shown: a dimerising Fc or GST)
chain: QRVEIHKLRQGENLILGFSIGGGIDQDPSQNPFSEDKTDKGIYVTRVSEGGPAEIAGLQIGDKIMQVNGWDMTMVTHDQARKRLTKRSEEVVRLLVTRQSLQK
notes: also called TIP-1 1/1
Kd [3]: 5 µM

B6: GST-DLG2 PDZ domain 2 (other, not shown: a dimerising Fc or GST)
chain: ISVVEIKLFKGPKGLGFSIAGGVGNQHIPGDNSIYVTKIIDGGAAQKDGRLQVGDRLLMVNNYSLEEVTHEEAVAILKNTSEVVYLKVGNPTTI
Kd [4]: 0.2 µM

B7: GST-KIAA0807(S) PDZ domain 1 (other, not shown: a dimerising Fc or GST)
chain: ISALGSMRPPIIIHRAGKKYGFTLRAIRVYMGDSDVYTVHHMVWHVEDGGPASEAGLRQGDLITHVNGEPVHGLVHTEVVELILKSGNKVAISTTPLENSS
Kd [5]: 5 µM
Kd [4]: 0.1 µM

B8: GST-NeDLG PDZ domain 2 (other, not shown: a dimerising Fc or GST)
chain: ITLLKGPKGLGFSIAGGIGNQHIPGDNSIYITKIIEGGAAQKDGRLQIGDRLLAVNNTNLQDVRHEEAVASLKNTSDMVYLKVAKPGSLE
Kd [6]: 3.5 µM

B9: GST-NeDLG PDZ domains 1, 2 (other, not shown: a dimerising Fc or GST)
chain: YEEIVLERGNSGLGFSIAGGIDNPHVPDDPGIFITKIIPGGAAAMDGRLGVNDCVLRVNEVDVSEVVHSRAVEALKEAGPVVRLVVRRRQPPPETIMEVNLLKGPKGLGFSIAGGIGNQHIPGDNSIYITKIIEGGAAQKDGRLQIGDRLLAVNNTNLQDVRHEEAVASLKNTSDMVYLKVAKPGSL
notes: domain: PDZ domains 1-2; also called NeDLG 1, 2
Kd [6]: 1 µM

B10: GST-KIAA1095 PDZ domain 1 (other, not shown: a dimerising Fc or GST)
chain: QGEETKSLTLVLHRDSGSLGFNIIGGRPSVDNHDGSSSEGIFVSKIVDSGPAAKEGGLQIHDRIIEVNGRDLSRATHDQAVEAFKTAKEPIVVQVLRRTPRTKMFTP
Kd (HPV E6 33 (modified)): 5 µM

B11: GST-KIAA1526 PDZ domain 1 (other, not shown: a dimerising Fc or GST)
chain: PDSAGPGEVRLVSLRRAKAHEGLGFSIRGGSEHGVGIYVSLVEPGSLAEKEGLRVGDQILRVNDKSLARVTHAEAVKALKGSKKLVLSVYSAGRIPGGYVTNH
Kd [1]: 1 µM

B12: GST-BAI-1 Associated Protein PDZ domain 2 (other, not shown: a dimerising Fc or GST)
chain: PSELKGKFIHTKLRKSSRGFGFTVVGGDEPDEFLQIKSLVLDGPAALDGKMETGDVIVSVNDTCVLGHTHAQVVKIFQSIPIGASVDLELCRGYPLPFDPDDPN
notes: also called BAI-1 (2/6)
binding result [7]: no binding (tested: 10 uM peptide)
binding result (HPV E6 77 (modified)): no binding (tested: 10 uM peptide)
Kd [6]: 3 µM

B13: GST-MUPP1 PDZ domain 10 (other, not shown: a dimerising Fc or GST)
chain: LPGCETTIEISKGRTGLGLSIVGGSDTLLGAIIIHEVYEEGAACKDGRLWAGDQILEVNGIDLRKATHDEAINVLRQTPQRVRLTLYRDEAPYKE
Kd (HPV E6 58 (modified) [8]): 5 µM

B14: GST-FLJ00011 PDZ domain 1 (other, not shown: a dimerising Fc or GST)
chain: KNPSGELKTVTLSKMKQSLGISISGGIESKVQPMVKIEKIFPGGAAFLSGALQAGFELVAVDGENLEQVTHQRAVDTIRRAYRNKAREPMELVVRVPGPSPRPSPSD
Kd [1]: 0.35 µM

B15: GST-Atrophin-1 Interacting Protein PDZ domain 2 (other)
chain: LSGATQAELMTLTIVKGAQGFGFTIADSPTGQRVKQILDIQGCPGLCEGDLIVEINQQNVQNLSHTEVVDILKDCPIGSETSLIIHRGGFF
Kd [1]: 0.8 µM

B16: GST-PSD95 PDZ domain 3 (other, not shown: a dimerising Fc or GST)
chain: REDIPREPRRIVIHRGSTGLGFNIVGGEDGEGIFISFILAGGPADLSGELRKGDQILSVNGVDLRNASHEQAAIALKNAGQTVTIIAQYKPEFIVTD
Kd (HPV E6 33 (modified)): 5 µM

B17: GST-KIAA0147 PDZ domain 3 (other, not shown: a dimerising Fc or GST)
chain: ILEGPYPVEEIRLPRAGGPLGLSIVGGSDHSSHPFGVQEPGVFISKVLPRGLAARSGLRVGDRILAVNGQDVRDATHQEAVSALLRPCLELSLLVRRDPAEFIVTD
Kd [1]: 0.35 µM

B18: GST-NeDLG PDZ domain 3 (other, not shown: a dimerising Fc or GST)
chain: ILLHKGSTGLGFNIVGGEDGEGIFVSFILAGGPADLSGELRRGDRILSVNGVNLRNATHEQAAAALKRAGQSVTIVAQYRPEEYSRFESKIHDLREQMMNSSMSSGSGSLRTSEKRSLE
Kd (HPV E6 58 (modified) [9]): 5 µM
